Among the data in US20240327848 are Kd values, retold here.

The data set has as its target human serum albumin (HSA) (Homo sapiens) (UniProt P02768). Put plainly: ELONA. To be noted: Nap-dU at all positions marked 6 (n); bead-based ELISA, buffer SB18 (5 mM MgCl2), 37 C. (ELISA stands for enzyme-linked immunosorbent assay.)

With “CTCTCCCAGGTCGAGCTGTACGCGTGTGTGACCTGACGTG [AL002]”, the Kd (usually the free concentration of one partner at which half of the binding sites on the other are occupied at equilibrium, for simple one-to-one binding) came to 0.0207 µM. To CAGGTCGAGCTGTACGCGTGTGTGACCTG [AL006] belongs 0.019 µM; to TCCCAGGTCGAGCTGTACGCGTGTGTGACC [AL005], 0.0147 µM; to “CTCTCCCAGGTCGAGCTGTACGCGTGTGTGACCTG [AL003]”, 0.00224 µM.
